Assay [1] concerns anti-Her2antibody-Fab (IgG-Fab derived from anti-Her2 monoclonal antibody, Trastuzumab). As to the kind of experiment: Biacore 3000 surface plasmon resonance, affinity of SpG-β1 mutants for immobilized IgG-Fab. It is filed as binding, human. The following applies: Table 1, Example 2, GST-fused one-domain peptide; for KA: KA=kon/koff, 1:1 binding model; for KA Vs. Wild: fold of wild-type KA; for kon: 25° C., pH 7.4. (In general: Surface plasmon resonance follows binding to a sensor surface in real time, without labels.)
Experimental: The Fab fragment was prepared by cleaving a humanized monoclonal IgG formulation as a starting material into a Fab fragment and an Fc fragment by papain, and separating and purifying only the Fab fragment.
Specifically, a humanized monoclonal IgG formulation (Herceptin, manufactured by Chugai Pharmaceutical Co., Ltd., in the case of anti-Her2 monoclonal antibody) was dissolved in a papain digestion buffer (0.1 M AcOH—AcONa, 2 mM EDTA, 1 mM cysteine, pH 5.5). Papain immobilized agarose: Papain Agarose from papaya latex (manufactured by Sigma) was added to the solution and the mixture was incubated at 37° C. for about 8 hours while being mixed with a rotator. The IgG-Fab was collected from flow-through fractions by affinity chromatography using a KanCapA column (manufactured by Kaneka Corporation). Thus, the IgG-Fab was separated and purified from the reaction solution (containing both the Fab fragment and the Fc fragment), which had been separated from the papain immobilized agarose. The separated IgG-Fab solution was purified by gel filtration chromatography using the Superdex 75 10/300 GL column (a standard buffer was used for equilibration and separation) to obtain an IgG-Fab solution.
(§1) The affinity of each of the SpG-β1 mutants produced in Example 1 (2) for the IgG-Fab was analyzed by using a biosensor: Biacore 3000 using surface plasmon resonance principle (manufactured by GE Healthcare Bioscience). In this example, the IgG-Fab produced in Example 2 (1) was immobilized on a sensor chip and each peptide was added on the chip. The interaction between the IgG-Fab and the peptide was detected. The IgG-Fab was immobilized on the sensor chip CM5 by amine coupling using N-hydroxysuccinimide (NHS) and N-ethyl-N′-(3-dimethylaminopropyl)carbodiimide hydrochloride (EDC), and ethanolamine was used for blocking (all the sensor chips and the immobilization reagents were manufactured by GE Healthcare Bioscience). The IgG-Fab solution was about 10-fold diluted in an immobilization buffer (10 mM CH3COOH—CH3COONa, pH 4.5) and the IgG-Fab was immobilized on the sensor chip in accordance with the protocol attached to the Biacore 3000. Further, a reference cell to be used as a negative control was also prepared by immobilizing ethanolamine for another flow cell on the chip after activation by EDC/NHS. Various SpG-31 mutants were appropriately prepared at concentrations of 0.1 to 100 μM by using a running buffer (20 mM NaH2PO4—Na2HPO4, 150 mM NaCl, 0.005% P-20, pH 7.4). Each peptide solution was added on the sensor chip at a flow rate of 40 μL/minute for 60 seconds. A sensorgram of the binding reaction at 25° C. was sequentially plotted during the addition (binding phase, 60 seconds) and after the addition (dissociation phase, 60 seconds). After each sensorgram determination, the sensor chip was regenerated by adding 20 mM NaOH (for 30 seconds).

The target in assay [2] is T1, anti-TNFα antibody-Fab (IgG-Fab derived from anti-TNFα monoclonal antibody, adalimumab) (Homo sapiens, UniProt P01834+P01857).
T1 construct: cleaving a humanized monoclonal IgG formulation as a starting material into a Fab fragment and an Fc fragment by papain; purchased
Described as above. The class given is binding. The following applies: for affinity / binding ability for the IgG-Fab compared with the wild-type (in words): Tables 1 and 3, FIGS. 2 and 3.
Experimental: as §1
The affinity of the SpG-β1 mutant for the IgG-Fab was measured in the same manner as in the experiment of Example 2.
The affinity of the SpG-β1 mutant for the IgG-Fab was measured in the same manner as in the experiment of Example 3. In this experiment, the measurement was performed on the GST-cleaved type after the GST cleavage (Pep-). Further, not only one domain type (Pep.1d) but also one domain type with Cys at the C-terminus (Pep.1dC) and two domain type with Cys at the C-terminus (Pep.2dC) were used to perform the experiment.

Setting [3] is: Table 1, Example 2, GST-fused one-domain peptide, 25° C., pH 7.4.
Setting [4] is: Table 1, Example 2, GST-fused one-domain peptide, KA=kon/koff, 1:1 binding model.
[5] abbreviates: Table 1, Example 2, fold of wild-type KA, GST-fused one-domain peptide.
The mark [6] stands for this setting: Table 3, Example 4, GST-cleaved type (Pep-), constructs Pep.1d, Pep.1dC, Pep.2dC.
Setting [7] is: Table 3, Example 4, fold of wild-type KA of the same construct type.

Where no end group is shown, it is not given here.

As for “K10R/K13T/K28Q/F30L/Q32R: GST-fused one-domain SpG-β1 mutant, amino acid SEQ ID NO: 17 (TTYKLILNGRTLTGETTTEAVDAATAEQVLKRYANDNGVDGEWTYDDATKTFTVTE; also: GST-fused, end not given here)”, in assay [1], the KA was 1.72e+06 M⁻¹ and the “KA Vs. Wild” value is on record as 3.2.

On to “K13T/E19I/F30L: GST-fused one-domain SpG-β1 mutant, amino acid SEQ ID NO: 15 (TTYKLILNGKTLTGETTTIAVDAATAEKVLKQYANDNGVDGEWTYDDATKTFTVTE; also: GST-fused)”, for which the kon is 141000 s/M in assay [1] and 92300 s/M in assay [2] (setting [3]). In addition, the KA was determined as 1.99e+06 M⁻¹ in assay [1] and 1.8e+06 M⁻¹ in assay [2] (setting [4]). Besides, the figures for the “KA Vs. Wild” value in assay [1] and in assay [2] (setting [5]) were 3.6 and 2.8, respectively.

Regarding “K13T/E19I/V39I: GST-fused one-domain SpG-β1 mutant, amino acid SEQ ID NO: 19 (TTYKLILNGKTLTGETTTIAVDAATAEKVFKQYANDNGIDGEWTYDDATKTFTVTE; also: GST-fused)”, the kon in assay [1] came to 222000 s/M; in assay [2] (setting [3]), 145000 s/M. Also, the results for the KA in assay [1] and in assay [2] (setting [4]) were 2.83e+06 M⁻¹ and 2.74e+06 M⁻¹, respectively. Further, the “KA Vs. Wild” value in assay [1] is reported as 5.2; in assay [2] (setting [5]) it was 4.3.

In the case of “K13T/F30L/D36G (TTYKLILNGKTLTGETTTEAVDAATAEKVLKQYANGNGVDGEWTYDDATKTFTVTE)”, in assay [1], the KA came out at 3.17e+06 M⁻¹ and the “KA Vs. Wild” value is listed as 5.8.

In general, koff refers to a measure of how fast the partners let go of each other. On to “Pep.1d K10R/K13T/T18A/E19I/V21D/T25M/F30L/Y33F/N35F/D47A: SpG-β1 mutant, SEQ ID NO: 87, GST-cleaved one domain type (TTYKLILNGRTLTGETTAIADDAAMAEKVLKQFAFDNGVDGEWTYDAATKTFTVTE; SpG mutant)”, for which the “affinity constant (KA), order of magnitude” value in assay [2] (Example 4, GST-cleaved one domain type) was ~10^7 M^−1. In assay [2] (setting [6]), this substance displayed a KA of 1.19e+07 M⁻¹, a koff of 0.0117 s⁻¹ and a kon of 138000 s/M. For the same substance, the “KA Vs. Wild” value in assay [2] (setting [7]) worked out at 83. Besides, in assay [2] (Table 3, Example 4, fold of wild-type KA of the same construct type, listed as Pep-SpGβ1-K10R/K13T/T18A/E19I/V21D/T25M/F30L/Y33F/N35F/D47A.1d), the “KA Vs. Wild” value is given as ≥ 80. Further, the “affinity / binding ability for the IgG-Fab compared with the wild-type (in words)” value in assay [2] is reported as “significantly higher affinity for the IgG-Fab than Pep-SpGβ1-Wild.1d”.

In assay [2] (setting [6]), “Pep.1d K13T/E19I/V21D/T25M/F30L/Y33F/N35F/D47A (TTYKLILNGKTLTGETTTIADDAAMAEKVLKQFAFDNGVDGEWTYDAATKTFTVTE)” displayed a KA of 4.24e+06 M⁻¹, a koff of 0.0257 s⁻¹ and a kon of 109000 s/M. For the same substance, in assay [2] (setting [7]), the “KA Vs. Wild” value came out at 29. The “KA Vs. Wild” value in assay [2] (Table 3, Example 4, fold of wild-type KA of the same construct type, listed as Pep-SpGβ1-K13T/E19I/V21D/T25M/F30L/Y33F/N35F/D47A.1d) was ~30. Further, the “affinity / binding ability for the IgG-Fab compared with the wild-type (in words)” value in assay [2] is “significantly higher affinity for the IgG-Fab than Pep-SpGβ1-Wild.1d”.

As to “Pep.1d K13T/T18A/E19I/V21A/K28I/F30L/Y33F/V39I: SpG-β1 mutant, SEQ ID NO: 85, GST-cleaved one domain type (TTYKLILNGKTLTGETTAIAADAATAEIVLKQFANDNGIDGEWTYDDATKTFTVTE; SpG mutant)”, in assay [2] (setting [6]), the KA was 5.34e+06 M⁻¹, the koff amounted to 0.0207 s⁻¹ and the kon came to 111000 s/M. Moreover, in assay [2] (setting [7]), the “KA Vs. Wild” value turned out to be 37. Moreover, in assay [2], the “affinity / binding ability for the IgG-Fab compared with the wild-type (in words)” value was “significantly higher affinity for the IgG-Fab than Pep-SpGβ1-Wild.1d”.

In the case of “Pep.1dC K10R/K13T/T18A/E19I/V21D/T25M/F30L/Y33F/N35F/D47A (TTYKLILNGRTLTGETTAIADDAAMAEKVLKQFAFDNGVDGEWTYDAATKTFTVTE)”, in assay [2] (setting [6]), the KA is 1.56e+07 M⁻¹, the koff was 0.0062 s⁻¹ and the kon came to 97700 s/M. Further, the “KA Vs. Wild” value in assay [2] (setting [7]) is 88.

With “Pep.1dC K13T/E19I/V21D/T25M/F30L/Y33F/N35F/D47A (TTYKLILNGKTLTGETTTIADDAAMAEKVLKQFAFDNGVDGEWTYDAATKTFTVTE)”, in assay [2] (setting [6]), the KA worked out at 5.47e+06 M⁻¹, the koff was 0.0137 s⁻¹ and the kon is 74700 s/M. Besides, the “KA Vs. Wild” value in assay [2] (setting [7]) worked out at 31.

In assay [2] (setting [6]), “Pep.1dC K13T/T18A/E19I/V21A/K28I/F30L/Y33F/V39I: SpG-β1 mutant, SEQ ID NO: 85, GST-cleaved one domain type with Cys at the C-terminus (TTYKLILNGKTLTGETTAIAADAATAEIVLKQFANDNGIDGEWTYDDATKTFTVTE; C-terminal Cys; SpG mutant)” had a KA of 9.11e+06 M⁻¹, a koff of 0.0097 s⁻¹ and a kon of 88300 s/M. Moreover, in assay [2] (setting [7]), the “KA Vs. Wild” value came to 51.

On to “Pep.2dC K10R/K13T/T18A/E19I/V21D/T25M/F30L/Y33F/N35F/D47A: SpG-β1 mutant, SEQ ID NO: 87, GST-cleaved two domain type with Cys at the C-terminus”, for which, in assay [2] (setting [6]), the KA turned out to be 8.56e+07 M⁻¹, the off-rate constant (koff) stood at 0.0014 s⁻¹ and the kon is 117000 s/M. The “KA Vs. Wild” value in assay [2] (setting [7]) is 253. In assay [2] (Table 3, Example 4, fold of wild-type KA of the same construct type, listed as Pep-SpGβ1-K10R/K13T/T18A/E19I/V21D/T25M/F30L/Y33F/N35F/D47A.2dC), the “KA Vs. Wild” value is ≥ 200.

On to “Pep.2dC K13T/E19I/V21D/T25M/F30L/Y33F/N35F/D47A (TTYKLILNGKTLTGETTTIADDAAMAEKVLKQFAFDNGVDGEWTYDAATKTFTVTE)”, for which, in assay [2] (setting [6]), the KA was found to be 9.68e+06 M⁻¹, the koff was 0.0058 s⁻¹ and the kon is 55700 s/M. Moreover, the “KA Vs. Wild” value in assay [2] (setting [7]) turned out to be 29.

For “Pep.2dC K13T/T18A/E19I/V21A/K28I/F30L/Y33F/V39I (TTYKLILNGKTLTGETTAIAADAATAEIVLKQFANDNGIDGEWTYDDATKTFTVTE)”, in assay [2] (setting [6]), the KA came out at 1.02e+07 M⁻¹, the koff worked out at 0.0062 s⁻¹ and the kon worked out at 63900 s/M. Also, the “KA Vs. Wild” value in assay [2] (setting [7]) is given as 30.

The values are drawn from patent US10556944B2, “Fab region-binding peptide” (priority 2013, dated 2020).
